According to patent US12258605B2, “Alkane oxidation by modified hydroxylases” (The California Institute of Technology, priority 2005, dated 2025):
Marks after values point to notes of the source that are not given here.

Legend:
[1] = High-throughput dimethyl ether (DME) screen; type: biochemical; conditions: relative to 35-E11; normalized to P450 concentration
Method: Cell lysates for high throughput screening were prepared as described previously (Peters et al., J. Am. Chem. Soc. 125:13442 (2003); incorporated by reference herein). High-throughput dimethyl ether (DME) screens were performed in 96 well plates as described previously. Improved mutants were selected based on an increased signal compared to 9-10A (for the saturation mutagenesis libraries) and 1-12G (for the recombination library). Reactions on octane and propane were analyzed by gas chromatography as described.
Libraries of mutants of 35-E11 were screened for phenotypes indicative of either increased product formation on small gaseous substrates slightly larger than methane. Additionally, they were screened for increased coupling of the consumption of NADPH reducing equivalents to product formation. Product formation was determined by measuring total amount of dimethyl ether hydroxylation while increased coupling was determined primarily by decreased background NADPH consumption rates (measured spectrophotometrically at 340 nm in the absence of substrate).
The relative dimethyl ether (DME) activity was measured, 1 hour after treatment with Purpald, as the average net and absorbance at 550 nm from 8 microtitre plate DME reactions of the mutant compared to 8 equivalent reactions of 35-E11. All values were normalized by measuring the P450 concentration in each well with CO binding. “Asteriks” indicate criteria used to select mutants from libraries for further characterization. The oxidation rate is measured as absorbance change at 340 nm over 1 minute upon the addition of NADPH to 8 microtitre plate wells containing P450-containing cell lysate and compared to 8 equivalent reactions of 35-E11. All values were normalized by measuring the P450 concentration in each well with CO binding. The total turnover number (TTN) was measured as the absorbance at 550 nm of methane reactions with each mutant after treatment with alcohol oxidase and
Screening libraries by spectroscopically monitoring NADPH consumption rates in the presence of the alkane often selects for mutants with NADPH oxidation rates highly uncoupled to product formation. This can be overcome through the use of surrogate substrates that mimic desired substrates, yet yield species when hydroxylated that are easily detected either directly or with the addition of a dye. For example, the screen for the high-throughput identification of mutant BM-3 enzymes with activity towards propane as described previously uses dimethyl ether (DME) as a propane surrogate substrate. Upon hydroxylation, it decomposes into methanol and dye-sensitive formaldehyde. In addition, hexyl methyl ether (HME) may be used as a surrogate for octane. It shares most of the physical properties of octane, including solubility in buffer, size, shape, and strength of its C—H bonds. When HME is hydroxylated at its methoxy carbon, it also produces an equivalent of formaldehyde which is visually detected at concentrations as low as 10 μM with the dye Purpald (see FIG. 25). Hexanal, the aldehyde product formed when the α-carbon of the hexyl group is hydroxylated, is practically unreactive towards Purpald at some concentrations used in the present screens. Formaldehyde is approximately 42 times more sensitive to Purpald than hexanal (see FIG. 26). This disproportionate response makes HME, in contrast to the symmetric ether DME, a regio-selective screen for terminal alkane hydroxylation.
High-throughput screening. Single colonies were picked and inoculated by a Qpix robot (Genetix, Beaverton, OR) into 1-mL, deep-well plates containing LB (Amp*) medium (400 μL). The plates were incubated at 30° C., 250 rpm, and 80% relative humidity. After 24 h, 50 μL from this pre-culture were used to inoculate a 2-mL, deep-well plates containing […] TB (Amp^+) medium per well. Cultures were grown at 37° C., 220 rpm, and 80% relative humidity. […]

[2] = Kinetic measurements (Michaelis-Menten): propane; type: biochemical; conditions: N.a. = not active
Method: Rate measurements. Initial rates of product formation were determined at 25° C. in 100 mM KPi pH 8.0 buffer using purified protein (100 nM) and a substrate concentration of 1.6 mM. In a 5 mL-vial, 20 μL of alkane solution (in ethanol) were dissolved in 400 μL KPi buffer, to which 500 μL enzyme solution at 100-200 nM was added. Reaction was initiated by adding 100 μL of 5 mM NADPH solution, followed by stirring at 300 rpm for 1 minute, and quenched by adding 200 μL chloroform and stirring at 800 rpm for 10 sec. Solutions were transferred to an Eppendorf tube, to which internal standard (10 μL 25 mM 1-bromohexane in ethanol) was added. Tubes were vortexed for 10 sec and centrifuged for 30 sec at 10,000 g. Organic phase was removed and analyzed by GC. For propane, reactions were carried out in a 5 mL-scale using 100-400 nM purified enzyme, propane-saturated buffer (propane concentration≈1.6 mM) and a final NADPH concentration of 500 μM. Reactions were stopped by addition of 200 μL H2SO4 conc. and analyzed by derivatization to alkyl nitrites followed by GC-ECD analysis as described below.
Kinetic measurements. […] Reactions were carried out in a 5 mL-scale using 100-400 nM purified enzyme and a final NADPH concentration of 1 mM. After 30 seconds, reactions were stopped by addition of 200 μL H2SO4 conc. and analyzed by GC as described below. Propane leakage during the experiment was neglected in reason of short measuring time. All measurements were performed in triplicate. Kinetic parameters were estimated from least-squares nonlinear regression to the Michaelis-Menten equation,
[formula] where v is the initial velocity, S is the substrate concentration, Vmax is the maximum velocity, and Km is the apparent Michaelis constant for the substrate.
Products from alkane reactions were identified and quantified by gas chromatography using authentic standards and calibration curves with internal standards. For the reactions with alkanes from pentane to decane, GC analyses were carried out using a Shimadzu GC-17A gas chromatograph, Agilent HP5 column (30 m×0.32 mm×0.1 μm film), 1 μL injection, FID detector, and the following separation program: 250° C. inlet, 250° C. detector, 50° C. oven for 3 min, 5° C./min gradient to 100° C., 25° C./min gradient to 230° C., and 230° C. for 3 min. For butane and propane (TTN) reactions, GC analyses were carried out using a Hewlett-Packard 5890 Series II Plus gas chromatograph, Supelco SPB-1 column (60 m×0.52 mm×0.5 μm film), 0.5 μL injection, FID detector, and the following separation program: 250° C. inlet, 275° C. detector, 80° C. oven for 2 min, 10° C./min gradient to 110° C., 25° C./min gradient to 275° C., and 275° C. for 2.5 min. […] Organic solutions were analyzed by FID-GC.

Molecule | Relative DME activity in screen [1] | Km [2] [µM] | kcat [2] [s⁻¹]
35-E11: P450 BM-3 variant, SEQ ID NO:7: 53-5H substitutions plus E464G and I710T (protein, mutant P450 35-E11 protein sequence) TIKEMPQPKTFGELKNLPLLNTDKPVQALMKIADELGEIFKFEAPGCVTRYLSSQRLIKEACDESRFDKNLSQALKFFRDFSGDGLFTSWTHEINWKKAHNILLPSFSQQAMKGYHAMMVDIAVQLVQKWERLNADEHIEVSEDMTRLTLDTIGLCGFNYRFNSFYRDQPHPFIISMVRALDEVMNKLQRANPDDPAYDENKRQCQEDIKVMNDLVDKIIADRKARGEQSDDLLTQMLNGKDPETGEPLDDGNISYQIITFLIAGHETTSGLLSFALYFLVKNPHVLQKVVEEAARVLVDPVPSYKQVKQLKYVGMVLNEALRLWPTFPAFSLYAKEDTVLGGEYPLEKGDEVMVLIPQLHRDKTIWGDDVEEFRPERFENPSAIPQHAFKPFGNGQRACIGQQFALHEATLVLGMMLKHFDFEDHTNYELDIKETLTLKPEGFVVKAKSKKIPLGGIPSPSTGQSAKKVRKKAENAHNTPLLVLYGSNMGTAEGTARDLADIAMSKGFAPQVATLDSHAGNLPREGAVLIVTASYNGHPPDNAKQFVDWLDQASADEVKGVRYSVFGCGDKNWATTYQKVPAFIDETLAAKGAENIADRGEADASDDFEGTYEEWREHMWSDVAAYFNLDIENSEDNKSTLSLQFVDSAADMPLAKMHGAFSTNVVASKELQQPGSARSTRHLEIELPKEASYQEGDHLGVIPRNYEGTVNRVTARFGLDASQQIRLEAEEEKLAHLPLAKTVSVEELLQYVELQDPVTRTQLRAMAAKTVCPPHKVELEALLEKQAYKEQVLAKRLTMLELLEKYPACEMKFSEFIALLPSIRPRYYSISSSPRVDEKQASITVSVVSGEAWSGYGEYKGIASNYLAELQEGDTITCFISTPQSEFTLPKDPETPLIMVGPGTGVAPFRGFVQARKQLKEQGQSLGEAHLYFGCRSPHEDYLYQEELENAQSEGIITLHTAFSRMPNQPKTYVQHVMEQDGKKLIELLDQGAHFYICGDGSQMAPAVEATLMKSYADVHQVSEADARLWLQQLEEKGRYAKDVWAG | 1 | 820 ± 95 | 4.08 ± 0.417
20-D3: P450 BM-3 variant, SEQ ID NO:11; 35-E11 plus H285R (protein, mutant P450 20-D3 protein sequence, 35-E11 plus H285R) TIKEMPQPKTFGELKNLPLLNTDKPVQALMKIADELGEIFKFEAPGCVTRYLSSQRLIKEACDESRFDKNLSQALKFFRDFSGDGLFTSWTHEINWKKAHNILLPSFSQQAMKGYHAMMVDIAVQLVQKWERLNADEHIEVSEDMTRLTLDTIGLCGFNYRFNSFYRDQPHPFIISMVRALDEVMNKLQRANPDDPAYDENKRQCQEDIKVMNDLVDKIIADRKARGEQSDDLLTQMLNGKDPETGEPLDDGNISYQIITFLIAGHETTSGLLSFALYFLVKNPRVLQKVVEEAARVLVDPVPSYKQVKQLKYVGMVLNEALRLWPTFPAFSLYAKEDTVLGGEYPLEKGDEVMVLIPQLHRDKTIWGDDVEEFRPERFENPSAIPQHAFKPFGNGQRACIGQQFALHEATLVLGMMLKHFDFEDHTNYELDIKETLTLKPEGFVVKAKSKKIPLGGIPSPSTGQSAKKVRKKAENAHNTPLLVLYGSNMGTAEGTARDLADIAMSKGFAPQVATLDSHAGNLPREGAVLIVTASYNGHPPDNAKQFVDWLDQASADEVKGVRYSVFGCGDKNWATTYQKVPAFIDETLAAKGAENIADRGEADASDDFEGTYEEWREHMWSDVAAYFNLDIENSEDNKSTLSLQFVDSAADMPLAKMHGAFSTNVVASKELQQPGSARSTRHLEIELPKEASYQEGDHLGVIPRNYEGTVNRVTARFGLDASQQIRLEAEEEKLAHLPLAKTVSVEELLQYVELQDPVTRTQLRAMAAKTVCPPHKVELEALLEKQAYKEQVLAKRLTMLELLEKYPACEMKFSEFIALLPSIRPRYYSISSSPRVDEKQASITVSVVSGEAWSGYGEYKGIASNYLAELQEGDTITCFISTPQSEFTLPKDPETPLIMVGPGTGVAPFRGFVQARKQLKEQGQSLGEAHLYFGCRSPHEDYLYQEELENAQSEGIITLHTAFSRMPNQPKTYVQHVMEQDGKKLIELLDQGAHFYICGDGSQMAPAVEATLMKSYADVHQVSEADARLWLQQLEEKGRYAKDVWAG | 1.7* |  | 
P450PMO: P450 BM-3 variant, SEQ ID NO:125; 7-7 plus G443A and D698G; propane monooxygenase (protein, Mutant P450PMO protein sequence, 7-7 plus G443A and D698G; propane monooxygenase) TIKEMPQPKTFGELKNLPLLNTDKPVQALMKIADELGEIFKFEAPGCVTRYISSQRLIKEACDESRFDKNLSQELKFFRDFGGDGLFTSWTHEINWKKAHNILLPSFSQQAMKGYHAMMVDIAVQLVQKWERLNADEHIEVSEDMTRLTLDTIGLCGFNYRFNSFYRDQPHPFIISMVRALDEVMNKPQRANPDDPAYDENKRQCQEDIKVMNDLVDKIIADRKARGEQSDDLLTQMLNGKDPETGEPLDDGNISYQIITFLIAGHETTSGLLSFALYFLVKNPHVLQKVVEEAARVLVDPVPSYKQVKQLKYVGMVLNEALRLWPTFPAFSLYAKEDTVLGGEYPLEKGDEVMVLIPQLHRDKTVWGDDVEEFRPERFENPSAIPQHAFKPFGNGQRACIGQQFALHEATLVLGMMLKHFDFEDHTNYELDIKETLTLKPEAFVVKAKSKKIPLGGIPSPSTGQSAKKVRKKAENAHNTPLLVLYGSNMGTAEGTARDLADIAMSKGFAPQVATLDSHAGNLPREGAVLIVTASYNGHPPDNAKQFVDWLDQASADEVKGVRYSVFGCGDKNWATTYQKVPAFIDETLAAKGAENIADRGEADASDDFEGTYEEWREHMWSDVAAYFNLDIENSEDNKSTLSLQFVDSAADMPLAKMHGAFSTNVVASKELQQPGSARSTRHLEIELPKEASYQEGGHLGVIPRNYEGTVNRVTARFGLDASQQIRLEAEEEKLAHLPLAKTVSVEELLQYVELQDPVTRTQLRAMAAKTVCPPHKVELEALLEKQAYKEQVLAKRLTMLELLEKYPACEMKFSEFIALLPSIRPRYYSISSSPRVDEKQASITVSVVSGEAWSGYGEYKGIASNYLAELQEGDTITCFISTPQSEFTLPKDPETPLIMVGPGTGVAPFRGFVQARKQLKEQGQSLGEAHLYFGCRSPHEDYLYQEELENAQSEGIITLHTAFSRMPNQPKTYVQHVMEQDGKKLIELLDQGAHFYICGDGSQMAPAVEATLMKSYADVHQVSEADARLWLQQLEEKGRYAKDVWAG |  | 170 | 3.08 ± 0.583
